From patent publication US20260242485A1 (LEPU BIOPHARMA, published 2026)
Residue numbers refer to the chain shown, from its start. In names and notes the source's numbering stands.

T1: human CD32B expressed on CHO-K1 cells (human, UniProt P31994 43-310)
T1 construct: whole, on cells; also called hCD32B
T1 sequence (looked up): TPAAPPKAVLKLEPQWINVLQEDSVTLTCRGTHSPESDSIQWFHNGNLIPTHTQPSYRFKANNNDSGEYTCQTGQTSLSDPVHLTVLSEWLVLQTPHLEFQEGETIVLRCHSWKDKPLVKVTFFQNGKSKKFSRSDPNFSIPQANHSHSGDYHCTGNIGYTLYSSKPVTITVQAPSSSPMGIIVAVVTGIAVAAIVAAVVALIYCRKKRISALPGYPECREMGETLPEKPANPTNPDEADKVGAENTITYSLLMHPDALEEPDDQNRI

B1: 45H6E8-z19p1 (antibody, V domains shown)
VH: QVQLVQSGAEVKKPGASVKVSCKVSGYTLTDYYMQWVRQAPGKGLEWIGWIDPEQGDTEYAPKFQGRVTMTADTSTDTAYMELSSLRSEDTAVYYCTTGGNYVDWGQGTTVTVSS
VL: DIQMTQSPSFLSASVGDRVTITCKASQNVGTAVAWYQQKPGKAPKLLIYSASNRYTGVPDRFSGSGSGTDFTLTISSLQPEDFATYFCQQYSSYPLLTFGQGTRLEIK
notes: PTM-removed (N to Q in VH CDR2) version of z19
B2: 45H6E8-z20p1 (antibody, V domains shown)
VH: B1 VH with I48M, V68A
VL: B1 VL
notes: PTM-removed version of z20
B3: GPC3-45H6E8-z19p1-hIgG1LALAPG (bispecific antibody)
heavy chain (anti-GPC3 heavy chain hIgG1 LALAPG, (G4S)4 linker, 45H6E8-z19p1 scFv): QVQLVQSGAEVKKPGASVKVSCKASGYTFTDYEMHWVRQAPGQGLEWMGAIHPGSGGTAYNQKFKGRVTMTRDTSTSTVYMELSSLRSEDTAVYYCARYYSYAYWGQGTLVTVSSASTKGPSVFPLAPSSKSTSGGTAALGCLVKDYFPEPVTVSWNSGALTSGVHTFPAVLQSSGLYSLSSVVTVPSSSLGTQTYICNVNHKPSNTKVDKKVEPKSCDKTHTCPPCPAPEAAGGPSVFLFPPKPKDTLMISRTPEVTCVVVDVSHEDPEVKFNWYVDGVEVHNAKTKPREEQYNSTYRVVSVLTVLHQDWLNGKEYKCKVSNKALGAPIEKTISKAKGQPREPQVYTLPPSREEMTKNQVSLTCLVKGFYPSDIAVEWESNGQPENNYKTTPPVLDSDGSFFLYSKLTVDKSRWQQGNVFSCSVMHEALHNHYTQKSLSLSPGKGGGGSGGGGSGGGGSGGGGSQVQLVQSGAEVKKPGASVKVSCKVSGYTLTDYYMQWVRQAPGKGLEWIGWIDPEQGDTEYAPKFQGRVTMTADTSTDTAYMELSSLRSEDTAVYYCTTGGNYVDWGQGTTVTVSSGGGGSGGGGSGGGGSDIQMTQSPSFLSASVGDRVTITCKASQNVGTAVAWYQQKPGKAPKLLIYSASNRYTGVPDRFSGSGSGTDFTLTISSLQPEDFATYFCQQYSSYPLLTFGQGTRLEIK
light chain: DIVMTQTPLSLSVTPGQPASISCRSSQSLVHSNGNTYLQWYLQKPGQSPQLLIYKVSNRFSGVPDRFSGSGSGTDFTLKISRVEAEDVGVYYCFQSIHVPYTFGGGTKLEIKRTVAAPSVFIFPPSDEQLKSGTASVVCLLNNFYPREAKVQWKVDNALQSGNSQESVTEQDSKDSTYSLSSTLTLSKADYEKHKVYACEVTHQGLSSPVTKSFNRGEC
B4: GPC3-45H6E8-z21p1-hIgG1LALAPG (bispecific antibody)
heavy chain (anti-GPC3 heavy chain hIgG1 LALAPG, (G4S)4 linker, 45H6E8-z21p1 scFv): B3 heavy chain (anti-GPC3 heavy chain hIgG1 LALAPG, (G4S)4 linker, 45H6E8-z19p1 scFv) with I513M
light chain: B3 light chain
B5: 45H6E8-z19 (antibody, human IgG1, V domains shown)
VH: B1 VH with Q55N
VL: B1 VL
notes: Human IgG1 LALAPG constant region; also called HU-VH1-6 / HU-VL1-3
B6: 45H6E8-z13 (antibody, V domains shown)
VH: B1 VH with I48M, Q55N, A72E, T97A
VL: B1 VL
notes: also called HU-VH1-1 / HU-VL1-3
B7: 45H6E8-z17 (antibody, human IgG1, V domains shown)
VH: B1 VH with T30K, Q55N, R67K, V68A
VL: B1 VL
notes: Human IgG1 LALAPG constant region; also called HU-VH1-5 / HU-VL1-3
B8: 45H6E8-z20 (antibody, human IgG1, V domains shown)
VH: B1 VH with I48M, Q55N, V68A
VL: B1 VL
notes: Human IgG1 LALAPG constant region; also called HU-VH1-7 / HU-VL1-3
B9: CCR8-hIgG1DE (antibody)
heavy chain: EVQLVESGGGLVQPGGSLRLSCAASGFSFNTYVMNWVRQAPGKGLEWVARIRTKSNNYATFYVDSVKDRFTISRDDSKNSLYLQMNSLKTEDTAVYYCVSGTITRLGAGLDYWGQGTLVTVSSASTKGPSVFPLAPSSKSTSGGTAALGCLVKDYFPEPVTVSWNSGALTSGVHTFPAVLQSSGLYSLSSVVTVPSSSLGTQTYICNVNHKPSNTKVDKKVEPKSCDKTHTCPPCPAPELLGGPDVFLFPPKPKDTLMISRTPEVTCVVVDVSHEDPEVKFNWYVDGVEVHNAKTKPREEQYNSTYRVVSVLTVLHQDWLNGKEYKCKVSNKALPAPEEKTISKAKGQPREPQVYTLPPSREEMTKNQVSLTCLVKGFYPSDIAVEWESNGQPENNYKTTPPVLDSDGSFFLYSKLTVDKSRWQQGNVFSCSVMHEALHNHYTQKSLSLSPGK
light chain: DIVMTQSPLSLPVTPGEPASISCRSSKSLLHSNANTYLYWYLQKPGQSPQLLIYRMSNLASGVPDRFSGSGSGTAFTLKISRVEAEDVGVYYCMQHLEYPFTFGGGTKLEIKRTVAAPSVFIFPPSDEQLKSGTASVVCLLNNFYPREAKVQWKVDNALQSGNSQESVTEQDSKDSTYSLSSTLTLSKADYEKHKVYACEVTHQGLSSPVTKSFNRGEC
notes: also called eADCC CCR8 mAb with Fc-DE (S239D/I332E)
B10: CCR8-hIgG1Afucosylated (antibody)
heavy: not shown
light: B9 light chain
modifications: chain 1 pos 303 (EU N297): the Fc N-glycan lacks core fucose (afucosylated); the letters are unchanged
notes: also called anti-hCCR8 monoclonal antibody with Fc-afucosylated; copies: 2 + 2
B11: CCR8-hIgG1DLE (antibody)
heavy chain: EVQLVESGGGLVQPGGSLRLSCAASGFSFNTYVMNWVRQAPGKGLEWVARIRTKSNNYATFYVDSVKDRFTISRDDSKNSLYLQMNSLKTEDTAVYYCVSGTITRLGAGLDYWGQGTLVTVSSASTKGPSVFPLAPSSKSTSGGTAALGCLVKDYFPEPVTVSWNSGALTSGVHTFPAVLQSSGLYSLSSVVTVPSSSLGTQTYICNVNHKPSNTKVDKKVEPKSCDKTHTCPPCPAPELLGGPDVFLFPPKPKDTLMISRTPEVTCVVVDVSHEDPEVKFNWYVDGVEVHNAKTKPREEQYNSTYRVVSVLTVLHQDWLNGKEYKCKVSNKALPLPEEKTISKAKGQPREPQVYTLPPSREEMTKNQVSLTCLVKGFYPSDIAVEWESNGQPENNYKTTPPVLDSDGSFFLYSKLTVDKSRWQQGNVFSCSVMHEALHNHYTQKSLSLSPGK
light chain: B9 light chain
notes: also called eADCC CCR8 mAb with Fc-DLE (S239D/A330L/I332E)
B12: CCR8-45H6E8-hIgG1 (bispecific antibody)
heavy: not shown
light: B9 light chain
notes: Format 1: anti-CCR8 IgG1 with wildtype Fc and 45H6E8 scFv at the C-terminus of each heavy chain; also called CCR8-45H6E8-hIgG1 BsAb; CCR8-45H6E8 WT BsAb

The binders below were run against T2, human CD16B-NA1 expressed on CHO-K1 cells (human, UniProt O75015 17-200) (assay: flow cytometry, CHO-K1-hCD16B-NA1 cells, geometric mean).
T2 construct: whole, on cells; also called hCD16B-NA1; CHO-K1-hCD16B-NA1
T2 sequence (O75015 other isoform, or with tags, fused parts or gaps): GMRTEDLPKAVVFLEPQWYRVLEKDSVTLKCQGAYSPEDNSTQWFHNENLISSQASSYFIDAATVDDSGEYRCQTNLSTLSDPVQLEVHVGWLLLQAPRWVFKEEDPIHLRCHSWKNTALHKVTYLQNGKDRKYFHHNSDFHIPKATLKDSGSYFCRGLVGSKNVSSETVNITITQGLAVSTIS
B1: no binding (tested: 100 nM). B2: no binding (tested: 100 nM).

Each binder was assayed against T3, human CD16A-158F expressed on CHO-K1 cells (human, UniProt P08637 17-254) (assay: flow cytometry, CHO-K1-hCD16A-158F cells, geometric mean).
T3 construct: whole, on cells
T3 sequence (P08637 17-254): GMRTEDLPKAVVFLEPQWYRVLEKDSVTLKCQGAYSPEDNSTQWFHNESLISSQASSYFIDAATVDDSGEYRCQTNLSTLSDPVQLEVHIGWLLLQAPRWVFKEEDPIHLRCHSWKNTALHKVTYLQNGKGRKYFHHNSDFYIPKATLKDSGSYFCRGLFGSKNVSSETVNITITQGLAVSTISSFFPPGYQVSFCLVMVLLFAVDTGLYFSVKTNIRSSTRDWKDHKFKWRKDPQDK
In the case of B1, the “EC50 (read off the curve)” value is reported as ~0.5 nM. In the case of B3, the “EC50 (read off the curve)” value is reported as ~2 nM. For B4, the “EC50 (read off the curve)” value was ~2 nM.

These binders were tested against T4, human CD16A-158V expressed on CHO-K1 cells (human, UniProt P08637 17-254) (assay: flow cytometry, CHO-K1-hCD16A-158V cells, geometric mean).
T4 construct: whole, on cells; also called hCD16A-158V; CHO-K1-hCD16A-158V
T4 sequence (P08637 17-254 F176V): as the sequence (P08637 17-254) above, with F160V counted along it
With B1 the “EC50 (read off the curve)” value was ~0.5 nM. For B3, the “EC50 (read off the curve)” value was ~1 nM. B4 was tested, and the “EC50 (read off the curve)” value was ~1 nM.

Each binder was assayed against T4, human CD16A-158V expressed on CHO-K1 … (assay: flow cytometry, CHO-K1-hCD16A-158V cells, Alexa Fluor 647 anti-human IgG Fc, geometric mean).
Protocol: (§1) In order to evaluate the binding activity of the chimeric mAbs to human CD16A expressed on cells, cell-based binding assay was employed as followed. […] The antibody dilutions were incubated with 1×10⁵ indicated cells in the 96-well microplate for one hour at 4° C. The antibodies binding to the antigen on the cell surface were detected with PE fluorophore-conjugated anti-human IgG Fc secondary antibodies (ThermoFisher scientific, Cat. No. 12-4998-82) at a dilution rate of 1:1000. Cells were analyzed by flow cytometer LSRFortessa Cell Analyzer (BD Biosciences). Data were analyzed with Flowjo 10.0 software. The graph and statistics analysis were generated with four-parameter nonlinear regression curve fit in Graphpad Prism 9 software.
(§2) The assay was performed following the protocol described above. The antibodies binding to the antigen on the cell surface were detected with Alexa Fluor® 647 AffiniPure™ F(ab′)₂ fragment goat anti-human IgG Fcγ fragment specific secondary antibody (Jackson Immuno Research, Cat. No. 109-606-098) at a dilution rate of 1:2000.
For B5, the “EC50 (read off the curve)” value was ~0.4 nM. In the case of B6, the “EC50 (read off the curve)” value is reported as ~0.4 nM. B7 was tested, and the “EC50 (read off the curve)” value was ~0.4 nM. B8 was tested, and the “EC50 (read off the curve)” value was ~0.4 nM.

What follows are binders tested against T3, human CD16A-158F expressed on CHO-K1 … (assay: flow cytometry, CHO-K1-hCD16A-158F cells, Alexa Fluor 647 anti-human IgG Fc, geometric mean).
Protocol: as §1, §2
With B5 the “EC50 (read off the curve)” value was ~0.4 nM. For B6, the “EC50 (read off the curve)” value was ~0.4 nM. For B7, the “EC50 (read off the curve)” value was ~0.4 nM. In the case of B8, the “EC50 (read off the curve)” value is reported as ~0.4 nM.

These binders were tested against T1, human CD32B expressed on CHO-K1 cells (assay: flow cytometry, CHO-K1-hCD32B cells, geometric mean).
Description: (§3) The purpose of the assay was to evaluate the binding of BsAb to each of the hFcγRs.
B9: binds. B10: binds. B11: binds. B12: binds.

Biological target: T3, human CD16A-158F expressed on CHO-K1 …
Test: flow cytometry, CHO-K1-hCD16A-158F cells, geometric mean
Remark: another data set of the same source
Protocol: as §1
(§4) The assay was performed following the protocol described above.
For B5, the “EC50 (read off the curve)” value was ~0.4 nM. In the case of B1, the “EC50 (read off the curve)” value is reported as ~0.4 nM. In the case of B8, the “EC50 (read off the curve)” value is reported as ~0.4 nM. For B2, the “EC50 (read off the curve)” value was ~0.4 nM.

Each binder was assayed against T5, cynomolgus CD16 expressed on CHO-K1 cells (cynomolgus, UniProt Q8SPW2 17-254) (assay: flow cytometry, CHO-K1-cyno CD16 cells, geometric mean).
T5 construct: whole, on cells; also called cyno CD16; CHO-K1-cynoCD16
T5 sequence (Q8SPW2 17-254): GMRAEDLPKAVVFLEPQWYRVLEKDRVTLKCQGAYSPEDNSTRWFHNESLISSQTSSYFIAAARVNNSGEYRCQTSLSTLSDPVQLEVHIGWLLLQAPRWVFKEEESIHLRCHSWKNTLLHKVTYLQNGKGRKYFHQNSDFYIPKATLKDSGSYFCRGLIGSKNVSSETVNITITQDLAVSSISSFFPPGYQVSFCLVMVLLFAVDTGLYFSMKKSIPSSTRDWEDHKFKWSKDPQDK
Protocol: as §1, §4
In the case of B5, the “EC50 (read off the curve)” value is reported as ~0.7 nM. With B1 the “EC50 (read off the curve)” value was ~0.7 nM. With B8 the “EC50 (read off the curve)” value was ~0.8 nM. With B2 the “EC50 (read off the curve)” value was ~0.7 nM.

The binders below were run against T6, human GPC3 on HepG2 cells (human, UniProt P51654 25-554) (assay: flow cytometry, HepG2 cells (GPC3 positive), geometric mean).
T6 construct: whole, on cells; also called GPC3-positive HepG2 cells
T6 sequence (P51654 25-554 limits assumed): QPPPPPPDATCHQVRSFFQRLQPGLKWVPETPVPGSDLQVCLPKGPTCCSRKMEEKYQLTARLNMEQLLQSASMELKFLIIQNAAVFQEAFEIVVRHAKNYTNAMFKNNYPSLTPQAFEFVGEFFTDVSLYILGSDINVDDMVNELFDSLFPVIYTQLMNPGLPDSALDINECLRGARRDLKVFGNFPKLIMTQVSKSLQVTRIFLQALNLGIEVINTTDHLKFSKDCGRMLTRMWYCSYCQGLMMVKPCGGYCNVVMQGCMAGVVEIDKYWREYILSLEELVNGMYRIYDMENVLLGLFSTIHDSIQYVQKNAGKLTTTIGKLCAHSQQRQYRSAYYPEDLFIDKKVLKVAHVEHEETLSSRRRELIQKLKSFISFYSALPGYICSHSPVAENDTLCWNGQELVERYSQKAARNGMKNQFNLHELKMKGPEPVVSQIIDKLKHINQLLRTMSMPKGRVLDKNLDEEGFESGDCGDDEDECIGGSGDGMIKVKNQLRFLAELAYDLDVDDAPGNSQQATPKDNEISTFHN
B1: no binding (tested: 100 nM). B3 was tested, and the “EC50 (read off the curve)” value was ~0.3 nM. For B4, the “EC50 (read off the curve)” value was ~0.3 nM.

Biological target: T3, human CD16A-158F expressed on CHO-K1 …
Test: flow cytometry, CHO-K1-hCD16A-158F cells, geometric mean
Remark: another data set of the same source
Description: as §3
B9 gave an EC50 of 1.4 nM. B10 showed an EC50 of 3.5 nM. B11 was tested, and the EC50 was 1.2 nM. Work on B12 yielded an EC50 of 0.095 nM.

Biological target: T4, human CD16A-158V expressed on CHO-K1 …
Test: flow cytometry, CHO-K1-hCD16A-158V cells, geometric mean
Remark: another data set of the same source
Description: as §3
Binder B9 has an EC50 of 0.8 nM. Binder B10 has an EC50 of 0.45 nM. With B11 the EC50 was 0.75 nM. Work on B12 yielded an EC50 of 0.1 nM.

What follows are binders tested against T2, human CD16B-NA1 expressed on CHO-K1 … (assay: flow cytometry, CHO-K1-hCD16B-NA1 cells, Alexa Fluor 647 anti-human IgG Fc, geometric mean).
Protocol: as §1, §2
B5: no binding (tested: 100 nM). B6: no binding (tested: 100 nM). B7: no binding (tested: 100 nM). B8: no binding (tested: 100 nM).

What follows are binders tested against T5, cynomolgus CD16 expressed on CHO-K1 … (assay: flow cytometry, CHO-K1-cyno CD16 cells, Alexa Fluor 647 anti-human IgG Fc, geometric mean).
Protocol: as §1, §2
With B5 the “EC50 (read off the curve)” value was ~1 nM. B6 was tested, and the “EC50 (read off the curve)” value was ~1 nM. With B7 the “EC50 (read off the curve)” value was ~1 nM. For B8, the “EC50 (read off the curve)” value was ~1 nM.

Biological target: T4, human CD16A-158V expressed on CHO-K1 …
Test: flow cytometry, CHO-K1-hCD16A-158V cells, geometric mean
Remark: another data set of the same source
Protocol: as §1, §4
With B5 the “EC50 (read off the curve)” value was ~0.4 nM. With B1 the “EC50 (read off the curve)” value was ~0.4 nM. For B8, the “EC50 (read off the curve)” value was ~0.4 nM. With B2 the “EC50 (read off the curve)” value was ~0.4 nM.
